Laboratory results: publication PMC6638984, “Increased association between Epstein-Barr virus EBNA2 from type 2 strains and the transcriptional repressor BS69 restricts EBNA2 activity” (PLoS Pathogens, 2019)
pKd: −log10 of the molar value.

How the values were obtained:
[1] = molecular target: BS69 CC-MYND (Homo sapiens) (UniProt Q15326); conditions: cited from earlier work
[2] = molecular target: BS69 coiled-coil MYND domain (BS69_(CC-MYND), amino acids 480-602) (human) (UniProt Q15326); experiment: ITC; EBNA2 polypeptide titrated into 0.1 mM BS69_(CC-MYND) in the cell, 19 x 2.0 μl injections, 25°C, 20 mM Tris-HCl, 100 mM NaCl, 1 mM TCEP, pH 7.5; one-site (one event) model; n calculated for monomeric proteins
[3] = molecular target: BS69 coiled-coil MYND domain (BS69_(CC-MYND), amino acids 480-602) (human) (UniProt Q15326); experiment: ITC; EBNA2 polypeptide (0.3 or 0.6 mM) titrated into 0.1 mM BS69_(CC-MYND) in the cell, 19 x 2.0 µl injections, 25°C, 20 mM Tris-HCl, 100 mM NaCl, 1 mM TCEP, pH 7.5; one-site (one event) model; n on monomer concentrations; mean of 3 experiments

Chain of BS69 coiled-coil MYND domain (BS69_(CC-MYND), amino acids 480-602) (human) (Q15326 480-602): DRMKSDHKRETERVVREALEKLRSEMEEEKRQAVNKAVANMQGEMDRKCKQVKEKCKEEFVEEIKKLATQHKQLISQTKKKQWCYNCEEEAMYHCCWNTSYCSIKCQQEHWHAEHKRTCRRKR
Chain of type 1 EBNA2 polypeptide T1 EBNA2_(381-445) (domain or fragment) (P12978 381-445): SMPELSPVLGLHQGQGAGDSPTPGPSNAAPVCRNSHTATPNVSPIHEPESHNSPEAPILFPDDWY
Chain of BS69 CC-MYND (Homo sapiens) (Q15326 480-602): as the sequence (Q15326 480-602) above
Chain of type 1 EBNA2 polypeptide T1 EBNA2_(381-455) (domain or fragment) (P12978 381-455): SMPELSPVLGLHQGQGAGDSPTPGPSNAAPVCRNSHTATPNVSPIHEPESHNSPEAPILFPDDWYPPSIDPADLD

EBNA2 type 1 motif 2 peptide motif 2 (from UniProt P12978)
pKd [1]: 4.46

type 1 EBNA2 polypeptide T1 EBNA2_(381-445) (domain or fragment)
pKd [2]: 6.02 | stoichiometry N [2]: 0.42

type 1 EBNA2 polypeptide T1 EBNA2_(381-455) (domain or fragment)
stoichiometry N [3]: 0.38
